T1: PpERF17 (Prunus persica (peach), cv. …, UniProt M5W9J0 1-215)
T1 sequence: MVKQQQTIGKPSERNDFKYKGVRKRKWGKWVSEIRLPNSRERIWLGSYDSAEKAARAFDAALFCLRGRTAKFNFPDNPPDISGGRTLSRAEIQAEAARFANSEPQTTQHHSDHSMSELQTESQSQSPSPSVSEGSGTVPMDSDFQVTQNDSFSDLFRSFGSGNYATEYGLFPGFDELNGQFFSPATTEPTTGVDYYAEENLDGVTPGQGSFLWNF


Experiments:
PpERF17 [1] = molecular target: T1, PpERF17; test: EMSA; cold probe 50x/500x competes; Chemiluminescent EMSA Kit (Beyotime); buffer, salt, pH and temperature not stated; conditions: protein: recombinant; tags: GST (N-terminal, pGEX-4T-1); label: biotin; blunt
PpERF17 [2] = molecular target: T1, PpERF17; test: EMSA; Chemiluminescent EMSA Kit (Beyotime); buffer, salt, pH and temperature not stated; conditions: protein: recombinant, tags: GST (N-terminal, pGEX-4T-1), label: biotin

| Binder | binding result (PpERF17 [1]) | binding result (PpERF17 [2]; blunt) | other results |
| --- | --- | --- | --- |
| PpERF17-PpAOS probe (dsDNA) DNA 1: ATGGTTCATGTACCCCACCGTCTTCACACTCACCTTC DNA 2: GAAGGTGAGTGTGAAGACGGTGGGGTACATGAACCAT | binds | – | – |
| PpERF17-PpAOS mutant probe (dsDNA) DNA 1: ATGGTTCATGTACCCTTTTTTTTTCACACTCACCTTC DNA 2: GAAGGTGAGTGTGAAAAAAAAAGGGTACATGAACCAT | – | no binding | – |
| PpERF17-Pp13S-LOX probe (dsDNA) DNA 1: TCTTAAAAACGTGTGGACGGTGAGATCAACAGTACCC DNA 2: GGGTACTGTTGATCTCACCGTCCACACGTTTTTAAGA | binds | – | – |
| PpERF17-PpGAD probe (dsDNA) DNA 1: CATAAGGTCGGAAGGCACCGTCCATGTTCCAACTTGG DNA 2: CCAAGTTGGAACATGGACGGTGCCTTCCGACCTTATG | binds | – | – |
| PpERF17-Pp13S-LOX mutant probe (dsDNA) DNA 1: TCTTAAAAACGTGAAAAAAAAAAGATCAACAGTACCC DNA 2: GGGTACTGTTGATCTTTTTTTTTTCACGTTTTTAAGA | – | no binding | – |
| PpERF17-PpOPR3 mutant probe (dsDNA) DNA 1: TAGAAACCAAAACGATTTTTTTTTTAAATAAATCCGC DNA 2: GCGGATTTATTTAAAAAAAAAATCGTTTTGGTTTCTA | – | no binding | – |
| PpERF17-PpGAD mutant probe (dsDNA) DNA 1: CATAAAAAAAAAAGGTTTTTTTTTGTTCCAACTTGG DNA 2: CCAAGTTGGAACAAAAAAAAAACCTTTTTTTTTATG | – | – | binding result (PpERF17 [2]): no binding |
| PpERF17-PpOPR3 probe (dsDNA) DNA 1: TAGAAACCAAAACGACACCGGCCATAAATAAATCCGC DNA 2: GCGGATTTATTTATGGCCGGTGTCGTTTTGGTTTCTA | binds | – | – |
